Results published in patent publication US20210395322A1 (OSR, published 2021).

Molecular target: T1, Noggin (UniProt Q13253 28-232, limits assumed)
T1 sequence (looked up): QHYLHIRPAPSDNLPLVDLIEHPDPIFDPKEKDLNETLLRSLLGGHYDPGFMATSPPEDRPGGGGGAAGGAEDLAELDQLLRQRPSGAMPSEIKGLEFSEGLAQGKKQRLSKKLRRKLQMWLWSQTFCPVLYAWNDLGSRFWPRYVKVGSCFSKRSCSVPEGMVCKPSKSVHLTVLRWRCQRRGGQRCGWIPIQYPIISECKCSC
Test: size-exclusion chromatography of the AB204 and Noggin mixture

binding result: no binding
B1: AB204 (ligand)
chain: MQAKHKQRKRLKSSCKRHPLYVDFSDVGWNDWIIAPSGYHANYCDGECPFPLADHLNSTNHAIVQTLVNSVNSKIPKACCVPTKLRPMSMLYYDDGQNIIKKDIQNMIVEECGCS
notes: also called Noggin-insensitive chimera AB204
